{"source": "patent US20260242419A1", "about": "“A CYCLIC PEPTIDE FOR TRAPPING INTERLEUKIN-1 BETA” (Merck Sharp & Dohme LLC, priority 2023, published 2026)", "note": "Starred links: 1 amine or outer side, 2 acyl side, 3 side chain; linkers in the order of their positions; H or OH if unused. Non-standard residues stand in square brackets, D forms with d. 3AzaTyrEtNAc = (2S)-3-[6-(2-acetamidoethoxy)-3-pyridyl]-2-amino-propanoic acid, CC(=O)NCCOc1ccc(C[C@H](N[*:1])C(=O)[*:2])cn1; TyrEtNAc = (2S)-3-[4-(2-acetamidoethoxy)phenyl]-2-amino-propanoic acid, CC(=O)NCCOc1ccc(C[C@H](N[*:1])C(=O)[*:2])cc1; dPro(4R-(4-pyridylmethyl)) = O=C(O)[C@H]1C[C@@H](Cc2ccncc2)CN1; Ala(piperidin-4-yl) = O=C([C@H](CC1CCN([*:3])CC1)N[*:1])[*:2]; Trp(βS-Me,4-F) = C[C@@H](c1c[nH]c2cccc(F)c12)[C@H](N)C(=O)O; Bip(4'-COOH) = N[C@@H](Cc1ccc(-c2ccc(C(=O)O)cc2)cc1)C(=O)O; Ala(1-bicyclo(1.1.1)pentyl) = N[C@@H](CC12CC(C1)C2)C(=O)O; dPro(4R-Bzl(4-F)) = O=C(O)[C@H]1C[C@@H](Cc2ccc(F)cc2)CN1; Ala(piperazin-1-yl) = N[C@@H](CN1CCNCC1)C(=O)O; Ala(pyrimidin-5-yl) = N[C@@H](Cc1cncnc1)C(=O)O; Phe(4-COOH) = N[C@@H](Cc1ccc(C(=O)O)cc1)C(=O)O; Pro(cis-4-F) = O=C(O)[C@@H]1C[C@H](F)CN1; 4Pal = N[C@@H](Cc1ccncc1)C(=O)O; αMeS = C[C@](N)(CO)C(=O)O; Dab = NCC[C@H](N)C(=O)O; Aib = CC(C)(N)C(=O)O", "data": [{"target": "Recombinant human IL-1β (BioLegend 579404) (human, UniProt P01584 117-269)", "assay": "cell-based or functional assay", "units": {"MRC5 IC50": "nM"}, "values": [{"binder": "cyclo([Bip(4'-COOH)][4Pal][Phe(4-COOH)]G[Pro(cis-4-F)][Trp(βS-Me,4-F)][Aib]EW[Aib][Ala(piperidin-4-yl)]Q[Dab]G[dPro(4R-Bzl(4-F))]) (SMILES C[C@@H](c1c[nH]c2cccc(F)c12)[C@@H]1NC(=O)[C@@H]2C[C@H](F)CN2C(=O)CNC(=O)[C@H](Cc2ccc(C(=O)O)cc2)NC(=O)[C@H](Cc2ccncc2)NC(=O)[C@H](Cc2ccc(-c3ccc(C(=O)O)cc3)cc2)NC(=O)[C@H]2C[C@@H](Cc3ccc(F)cc3)CN2C(=O)CNC(=O)[C@H](CCN)NC(=O)[C@H](CCC(N)=O)NC(=O)[C@H](CC2CCNCC2)NC(=O)C(C)(C)NC(=O)[C@H](Cc2c[nH]c3ccccc23)NC(=O)[C@H](CCC(=O)O)NC(=O)C(C)(C)NC1=O)", "note": "[SEQ ID NO: 119]", "MRC5 IC50": 0.016}, {"binder": "cyclo([3AzaTyrEtNAc][4Pal][Phe(4-COOH)]G[Pro(cis-4-F)][Trp(βS-Me,4-F)][Aib]EW[Aib][Ala(pyrimidin-5-yl)]Q[Dab]G[dPro(4R-Bzl(4-F))]) (SMILES CC(=O)NCCOc1ccc(C[C@@H]2NC(=O)[C@H]3C[C@@H](Cc4ccc(F)cc4)CN3C(=O)CNC(=O)[C@H](CCN)NC(=O)[C@H](CCC(N)=O)NC(=O)[C@H](Cc3cncnc3)NC(=O)C(C)(C)NC(=O)[C@H](Cc3c[nH]c4ccccc34)NC(=O)[C@H](CCC(=O)O)NC(=O)C(C)(C)NC(=O)[C@H]([C@@H](C)c3c[nH]c4cccc(F)c34)NC(=O)[C@@H]3C[C@H](F)CN3C(=O)CNC(=O)[C@H](Cc3ccc(C(=O)O)cc3)NC(=O)[C@H](Cc3ccncc3)NC2=O)cn1)", "note": "[SEQ ID NO: 12]", "MRC5 IC50": 0.072}, {"binder": "cyclo([Bip(4'-COOH)][4Pal][Phe(4-COOH)]G[Pro(cis-4-F)][Trp(βS-Me,4-F)][Aib]EW[Aib][Ala(piperazin-1-yl)]Q[Dab]G[dPro(4R-Bzl(4-F))]) (SMILES C[C@@H](c1c[nH]c2cccc(F)c12)[C@@H]1NC(=O)[C@@H]2C[C@H](F)CN2C(=O)CNC(=O)[C@H](Cc2ccc(C(=O)O)cc2)NC(=O)[C@H](Cc2ccncc2)NC(=O)[C@H](Cc2ccc(-c3ccc(C(=O)O)cc3)cc2)NC(=O)[C@H]2C[C@@H](Cc3ccc(F)cc3)CN2C(=O)CNC(=O)[C@H](CCN)NC(=O)[C@H](CCC(N)=O)NC(=O)[C@H](CN2CCNCC2)NC(=O)C(C)(C)NC(=O)[C@H](Cc2c[nH]c3ccccc23)NC(=O)[C@H](CCC(=O)O)NC(=O)C(C)(C)NC1=O)", "note": "[SEQ ID NO: 120]", "MRC5 IC50": 0.014}, {"binder": "cyclo([Bip(4'-COOH)][Ala(1-bicyclo(1.1.1)pentyl)][Phe(4-COOH)]G[Pro(cis-4-F)][Trp(βS-Me,4-F)][Aib]EW[Aib][Ala(pyrimidin-5-yl)]Q[Dab]G[dPro(4R-Bzl(4-F))]) (SMILES C[C@@H](c1c[nH]c2cccc(F)c12)[C@@H]1NC(=O)[C@@H]2C[C@H](F)CN2C(=O)CNC(=O)[C@H](Cc2ccc(C(=O)O)cc2)NC(=O)[C@H](CC23CC(C2)C3)NC(=O)[C@H](Cc2ccc(-c3ccc(C(=O)O)cc3)cc2)NC(=O)[C@H]2C[C@@H](Cc3ccc(F)cc3)CN2C(=O)CNC(=O)[C@H](CCN)NC(=O)[C@H](CCC(N)=O)NC(=O)[C@H](Cc2cncnc2)NC(=O)C(C)(C)NC(=O)[C@H](Cc2c[nH]c3ccccc23)NC(=O)[C@H](CCC(=O)O)NC(=O)C(C)(C)NC1=O)", "note": "[SEQ ID NO: 13]", "MRC5 IC50": 0.022}, {"binder": "cyclo([Bip(4'-COOH)][4Pal][Phe(4-COOH)]G[Pro(cis-4-F)][Trp(βS-Me,4-F)][Aib]EW[Aib][Ala(pyrimidin-5-yl)]Q[Dab]G[dPro(4R-(4-pyridylmethyl))]) (SMILES C[C@@H](c1c[nH]c2cccc(F)c12)[C@@H]1NC(=O)[C@@H]2C[C@H](F)CN2C(=O)CNC(=O)[C@H](Cc2ccc(C(=O)O)cc2)NC(=O)[C@H](Cc2ccncc2)NC(=O)[C@H](Cc2ccc(-c3ccc(C(=O)O)cc3)cc2)NC(=O)[C@H]2C[C@@H](Cc3ccncc3)CN2C(=O)CNC(=O)[C@H](CCN)NC(=O)[C@H](CCC(N)=O)NC(=O)[C@H](Cc2cncnc2)NC(=O)C(C)(C)NC(=O)[C@H](Cc2c[nH]c3ccccc23)NC(=O)[C@H](CCC(=O)O)NC(=O)C(C)(C)NC1=O)", "note": "[SEQ ID NO: 14]", "MRC5 IC50": 0.035}, {"binder": "cyclo([Bip(4'-COOH)][4Pal][Phe(4-COOH)]G[Pro(cis-4-F)][Trp(βS-Me,4-F)][Aib]EW[Aib][4Pal]Q[Dab]G[dPro(4R-(4-pyridylmethyl))]) (SMILES C[C@@H](c1c[nH]c2cccc(F)c12)[C@@H]1NC(=O)[C@@H]2C[C@H](F)CN2C(=O)CNC(=O)[C@H](Cc2ccc(C(=O)O)cc2)NC(=O)[C@H](Cc2ccncc2)NC(=O)[C@H](Cc2ccc(-c3ccc(C(=O)O)cc3)cc2)NC(=O)[C@H]2C[C@@H](Cc3ccncc3)CN2C(=O)CNC(=O)[C@H](CCN)NC(=O)[C@H](CCC(N)=O)NC(=O)[C@H](Cc2ccncc2)NC(=O)C(C)(C)NC(=O)[C@H](Cc2c[nH]c3ccccc23)NC(=O)[C@H](CCC(=O)O)NC(=O)C(C)(C)NC1=O)", "note": "[SEQ ID NO: 15]", "MRC5 IC50": 0.035}, {"binder": "cyclo([TyrEtNAc][4Pal][Phe(4-COOH)]G[Pro(cis-4-F)][Trp(βS-Me,4-F)][Aib]SW[Aib][Ala(pyrimidin-5-yl)]Q[Dab]G[dPro(4R-Bzl(4-F))])", "note": "[SEQ ID NO: 16]", "MRC5 IC50": 0.051}, {"binder": "cyclo([Bip(4'-COOH)][4Pal][Phe(4-COOH)]G[Pro(cis-4-F)][Trp(βS-Me,4-F)][Aib]DW[Aib][Ala(pyrimidin-5-yl)]Q[Dab]G[dPro(4R-Bzl(4-F))]) (SMILES C[C@@H](c1c[nH]c2cccc(F)c12)[C@@H]1NC(=O)[C@@H]2C[C@H](F)CN2C(=O)CNC(=O)[C@H](Cc2ccc(C(=O)O)cc2)NC(=O)[C@H](Cc2ccncc2)NC(=O)[C@H](Cc2ccc(-c3ccc(C(=O)O)cc3)cc2)NC(=O)[C@H]2C[C@@H](Cc3ccc(F)cc3)CN2C(=O)CNC(=O)[C@H](CCN)NC(=O)[C@H](CCC(N)=O)NC(=O)[C@H](Cc2cncnc2)NC(=O)C(C)(C)NC(=O)[C@H](Cc2c[nH]c3ccccc23)NC(=O)[C@H](CC(=O)O)NC(=O)C(C)(C)NC1=O)", "note": "[SEQ ID NO: 17]", "MRC5 IC50": 0.029}, {"binder": "cyclo([Bip(4'-COOH)][4Pal][Phe(4-COOH)]G[Pro(cis-4-F)][Trp(βS-Me,4-F)][Aib]EW[αMeS][Ala(pyrimidin-5-yl)]Q[Dab]G[dPro(4R-Bzl(4-F))]) (SMILES C[C@@H](c1c[nH]c2cccc(F)c12)[C@@H]1NC(=O)[C@@H]2C[C@H](F)CN2C(=O)CNC(=O)[C@H](Cc2ccc(C(=O)O)cc2)NC(=O)[C@H](Cc2ccncc2)NC(=O)[C@H](Cc2ccc(-c3ccc(C(=O)O)cc3)cc2)NC(=O)[C@H]2C[C@@H](Cc3ccc(F)cc3)CN2C(=O)CNC(=O)[C@H](CCN)NC(=O)[C@H](CCC(N)=O)NC(=O)[C@H](Cc2cncnc2)NC(=O)[C@](C)(CO)NC(=O)[C@H](Cc2c[nH]c3ccccc23)NC(=O)[C@H](CCC(=O)O)NC(=O)C(C)(C)NC1=O)", "note": "[SEQ ID NO: 18]", "MRC5 IC50": 0.027}]}]}
